We go through two molecules from US20200325214A1 (NUMAB THERAPEUTICS, published 2020).

In test [1] the target is T1, mouse serum albumin (mouse, UniProt P07724 25-608).
T1 construct: Amine-coupled to the SPR chip; also called mouse SA; rodent SA
Kind of test: SPR (MASS-1), SA amine-coupled, scFv analyte, pH 7.4.
Method: (§1) Affinity of the humanized scFvs to serum albumin (SA) of the different species was determined by SPR measurements using a MASS-1 device (Sierra Sensors). SA was directly coupled to a high capacity amine sensor chip (Sierra Sensors) using amine coupling chemistry. […] The assay was run twice at different pH values: once in a 1×PBS-Tween buffer at pH 5.5 and another time in a 1×PBS-Tween buffer at pH 7.4.

The target in test [2] is T2, rat serum albumin (rat, UniProt P02770 25-608).
T2 construct: Amine-coupled to the SPR chip; also called rat SA; rodent SA
The test is described as above.
Method: as §1

Test [3] concerns the target T1, mouse serum albumin. Description: SPR (MASS-1), SA amine-coupled, scFv analyte, pH 5.5.
Method: as §1
In test [4] the target is T2, rat serum albumin. The description is as above.
Method: as §1
Test [5] deals with T3, marmoset (purified) serum albumin (marmoset).
T3 construct: Amine-coupled to the SPR chip; also called marmoset SA
The description is as above.
Method: as §1

The target in test [6] is T4, human serum albumin (human, UniProt P02768 25-609).
T4 construct: Amine-coupled to the SPR chip; also called HSA; human SA
Kind of test: SPR; species not given, human SA taken from Table 3. A general note: In SPR one partner is held on a chip, and binding of the other changes the refractive index at the surface.

Test [7] concerns the target T4, human serum albumin. Description: SPR (MASS-1), SA amine-coupled, scFv analyte, pH 5.5.
Method: as §1
For test [8], the target named is T5, cynomolgus serum albumin (cynomolgus, UniProt A2V9Z4 25-608).
T5 construct: Amine-coupled to the SPR chip; also called cynomolgus SA
The test is described as above.
Method: as §1

In test [9] the target is T4, human serum albumin. Kind of test: SPR (MASS-1), SA amine-coupled, scFv analyte, pH 7.4.
Method: as §1
The target of test [10] is T5, cynomolgus serum albumin. The test is described as above.
Method: as §1
The target of test [11] is T1, mouse serum albumin. Description: SPR, SA coupled to the chip, scFv as analyte.
Method: as §1
The target in test [12] is T2, rat serum albumin. Description: SPR, SA coupled to the chip, scFv as analyte.
Method: as §1
Test [13] deals with T5, cynomolgus serum albumin. Kind of test: SPR; upper end tied to cynomolgus SA at pH 5.5 by the KD values of Table 3.
Method: as §1
Test [14] has as its target T4, human serum albumin. Description: SPR; lower end tied to human SA at pH 5.5 by the KD values of Table 3.
Method: as §1

B1: 23-13-A01-sc02 (scFv, V domains shown)
VH: EVQLVESGGGLVQPGGSLRLSCAASGFSFSSSYWICWVRQAPGKGLEWVGCVFTGDGTTYYASWAKGRFTISRDNSKNTVYLQMNSLRAEDTATYFCARPVSVYYYGMDLWGQGTLVTVSS
VL: DVVMTQSPSSLSASVGDRVTITCQASQIISSRSAWYQQKPGQPPKLLIYQASKLASGVPSRFSGSGSGTDFTLTISSLQPEDFATYYCQCTYIDSNFGAFGGGTKLTVLG
notes: also called clone 23-13-A01 STR graft; humanized scFv
As for B1, the Kd – broadly, a measure of binding affinity in units of concentration – was determined as 32.2 nM in the test with mouse serum albumin [1]; 231 nM with rat serum albumin [2]; 4.86 nM in the test with mouse serum albumin [3]; 18.7 nM with rat serum albumin [4]; 3.77 nM in test [5]; 0.373 nM in the test with human serum albumin [7]. Besides, the figures for the Kd with cynomolgus serum albumin [8], in the test with human serum albumin [9] and with cynomolgus serum albumin [10] were 0.75 nM, 0.6 nM and 1.3 nM, respectively. For the same molecule, the koff (commonly the rate constant with which the complex falls apart) with mouse serum albumin [1] is 0.00469 s⁻¹; with rat serum albumin [2], 0.0245 s⁻¹; with mouse serum albumin [3], 0.000933 s⁻¹; with rat serum albumin [4], 0.00437 s⁻¹; in [5] it was 0.00128 s⁻¹; with human serum albumin [7], 0.000115 s⁻¹. The koff with cynomolgus serum albumin [8] is 0.000253 s⁻¹; with human serum albumin [9], 0.000194 s⁻¹; with cynomolgus serum albumin [10], 0.000433 s⁻¹. For the same molecule, the kon – broadly, the rate constant with which the complex forms – worked out at 146000 M⁻¹ s⁻¹ with mouse serum albumin [1]; 106000 M⁻¹ s⁻¹ with rat serum albumin [2]; 192000 M⁻¹ s⁻¹ with mouse serum albumin [3]; 234000 M⁻¹ s⁻¹ with rat serum albumin [4]; 338000 M⁻¹ s⁻¹ in [5]; 307000 M⁻¹ s⁻¹ with human serum albumin [7]. In addition, the kon with cynomolgus serum albumin [8] turned out to be 338000 M⁻¹ s⁻¹; in the test with human serum albumin [9], 323000 M⁻¹ s⁻¹; in the test with cynomolgus serum albumin [10] it was 334000 M⁻¹ s⁻¹. The “fold improvement of affinity of the STR graft over the CDR graft 23-13-A01-sc01” value in the test with human serum albumin [6] was about 3 fold.

B2: 19-01-H04-sc02 (scFv, V domains shown)
VH: EVQLVESGGGLVQPGGSLRLSCAASGFSLSSNAMGWVRQAPGKGLEYIGIISVGGFTYYASWAKGRFTISRDNSKNTVYLQMNSLRAEDTATYFCARDRHGGDSSGAFYLWGQGTLVTVSS
VL: DIQMTQSPSSLSASVGDRVTITCQSSESVYSNNQLSWYQQKPGQPPKLLIYDASDLASGVPSRFSGSGSGTDFTLTISSLQPEDFATYYCAGGFSSSSDTAFGGGTKLTVLG
notes: also called clone 19-01-H04 STR graft; humanized scFv
In the case of B2, the binding result with mouse serum albumin [11] and with rat serum albumin [12] was “no binding” each time. For the same molecule, the “fold improvement of affinity of the STR graft over the CDR graft 19-01-H04-sc01” value with cynomolgus serum albumin [13] and in the test with human serum albumin [14] was 20 to 300 fold throughout. The Kd was 0.674 nM in [5]; 0.684 nM with human serum albumin [7]; 0.387 nM in the test with cynomolgus serum albumin [8]; 1.07 nM with human serum albumin [9]; 0.711 nM in the test with cynomolgus serum albumin [10]. The koff in test [5] was 0.0026 s⁻¹; with human serum albumin [7], 0.000308 s⁻¹; with cynomolgus serum albumin [8] it was 0.000231 s⁻¹; with human serum albumin [9] it was 0.000411 s⁻¹; with cynomolgus serum albumin [10], 0.000302 s⁻¹. For the same molecule, the kon in [5] stood at 3.86e+06 M⁻¹ s⁻¹; with human serum albumin [7], 450000 M⁻¹ s⁻¹; in the test with cynomolgus serum albumin [8], 598000 M⁻¹ s⁻¹; with human serum albumin [9], 384000 M⁻¹ s⁻¹; with cynomolgus serum albumin [10] it was 424000 M⁻¹ s⁻¹.
